{"source": "patent US20240109974A1", "about": "(SHANDONG SIMCERE BIOPHARMACEUTICAL, published 2024)", "binders": {"B1": {"name": "001-WT (antibody, V domains shown)", "VH": "EVQLQESGGGLVQPGGSLNLSCAASGFAFSTYDLSWVRQTPEKRLEWVAYINNGGISTYYSDTVKGRFTISRDNAKNTLYLQMSSLKSEDTAMYYCVRGPFYGSANYFDYWGQGTTVTVSS", "VL": "EIVMTQSPASLSLSVGETVTITCRTSESIYSNLPWYQQKQGKSPQLLVYDATKLAEGVPSRFSGSESGTQYSLKINSLQSEDFGTYYCQHFWVTPWTFGGGTKLEIK", "notes": "Human-murine chimeric wild-type molecule; also called human-murine chimeric antibody WT of #001"}, "B2": {"name": "224-WT (antibody, V domains shown)", "VH": "EVQLQESGPEIVKPGASVKLSCTASGFNNKDIYMHWVKQRPEQGLEWIGRIDPATGNTKHDPKFQDKATLSSDTSSNTAYLQFSSLTSEDTAVYYCAHSPYGDFGAMDYWGQGTTVTVSS", "VL": "DIQMTQSPAIMSASLGERVTMTCTASSSVSSNYLHWYQQKPGSSPKLWIYSTSNLPSGVPARFSGSGSGTSYSLTISSMEAEDAATYYCHQYHRSPWTFGGGTKLEIK", "notes": "Human-murine chimeric wild-type molecule; also called human-murine chimeric antibody WT of #224"}, "B3": {"name": "219-WT (antibody, V domains shown)", "VH": "EVQLQESGAELVRPGASVKLSCKASGYSFTNYWMNWVKQRPGQGLEWIGMIHPSDTETRLNQNFKDKATLTVDKSSSTSYMQLSSPTSEDSAVYYCARGEGLGAARSVSMDYWGQGTTVTVSS", "VL": "DILMTQSPSSLSASLGDRVTISCRASQDISNYLNWYQQKPDGTVKVLIYYTAILHSGVPSRFSGSGSGTDYSLTISNLEQEDIATYFCQQGNTLPWTFGGGTKLEIK", "notes": "Human-murine chimeric wild-type molecule"}}, "key": {"[1]": {"target": "T1, human TNFR2 on the surface of CHO-TNFR2 cells (human, UniProt P20333 23-461)", "T1 construct": "whole, on cells", "T1 sequence (looked up)": "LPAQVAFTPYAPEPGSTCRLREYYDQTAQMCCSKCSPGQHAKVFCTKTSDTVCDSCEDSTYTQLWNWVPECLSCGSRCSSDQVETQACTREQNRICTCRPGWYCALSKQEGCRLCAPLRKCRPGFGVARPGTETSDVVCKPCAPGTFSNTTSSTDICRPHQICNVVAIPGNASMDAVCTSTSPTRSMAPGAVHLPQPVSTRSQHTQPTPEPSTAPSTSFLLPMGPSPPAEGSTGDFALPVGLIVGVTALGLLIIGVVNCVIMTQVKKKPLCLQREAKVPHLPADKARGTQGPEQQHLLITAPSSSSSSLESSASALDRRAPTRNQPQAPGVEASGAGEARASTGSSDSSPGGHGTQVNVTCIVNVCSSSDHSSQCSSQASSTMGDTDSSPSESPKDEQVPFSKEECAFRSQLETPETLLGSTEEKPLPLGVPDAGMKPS", "test": "flow cytometry competition: antibody titrated on CHO-TNFR2 cells, then human TNFα-biotin, detection with PE-streptavidin [panel A]", "experimental": "CHO stable cells highly expressing human TNFR2 were used for the experiment (the same as CHO-TNFR2 in Example 4). The CHO-TNFR2 cells were digested, washed twice with DPBS, then stained with Live/Dead (L/D) (20 minutes at room temperature), and plated at a density of 1×10⁵ cells/50 μl/well. A test anti-TNFR2 antibody was diluted to 6 μg/ml with a staining buffer as the starting concentration: the antibody was subjected to 3.33-fold gradient dilution, with a total of 7 concentration points. The diluted antibody was added to the plated cells at 50 μl/well, and the mixture was mixed well by gentle pipetting, and incubated at 4° C. for 30 minutes. Then the diluted 100 ng/ml of human TNFα-biotin was added at 100 μl/well, and the mixture was mixed well by gentle pipetting, and then incubated at 4° C. for 30 minutes. The mixture was washed twice with a staining buffer, and then 0.12 μg/ml PE-streptavidin (BioLegend, Cat #405204) was added at 100 μl/well; the resulting mixture was incubated at 4° C. for 30 minutes. The mixture was washed twice with a staining buffer, and then 150 μl of staining buffer was added to resuspend the cells; signals were detected by a flow cytometer (Thermo Attune NxT). […]"}, "[2]": {"target": "T2, Human TNFR2-His (Sino 10417-H08H) (human, UniProt P20333 23-257)", "T2 construct": "Bought protein; also called recombinant human TNFR2 protein; not shown: His tag", "T2 sequence (looked up)": "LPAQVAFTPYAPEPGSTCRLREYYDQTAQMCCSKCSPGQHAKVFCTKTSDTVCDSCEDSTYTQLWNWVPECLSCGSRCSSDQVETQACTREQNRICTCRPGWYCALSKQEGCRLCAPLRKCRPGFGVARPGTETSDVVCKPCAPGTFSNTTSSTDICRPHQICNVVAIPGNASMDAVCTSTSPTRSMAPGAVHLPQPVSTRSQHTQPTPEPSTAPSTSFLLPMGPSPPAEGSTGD", "test": "ELISA, plate coated with Human TNFR2-His, detection with anti-human IgG Fc-HRP [panel A]", "experimental": "(§1) The test humanized antibody against TNFR2 (as described in Example 1, the antibody was comprised of variable regions linked to IgG-Fc; the WT chimeric antibody also adopted the IgG-Fc structure) was subjected to 3.33-fold gradient dilution, loaded with 100 μl/well, and incubated with shaking at room temperature for 1.5 hours. The plate was washed, and then a working solution of murine anti-human IgG Fc-HRP (diluted at 1:10000) was added, loaded with 100 μl/well, and incubated with shaking at room temperature for 1.0 hour. The plate was washed again, and then the substrate TMB of HRP was added to develop colour. A stop solution was added to stop the reaction, and then a microplate reader (MD 13) was used to read the absorbance value. The binding curve of an antibody was drawn with antibody concentration as the abscissa and corresponding OD value as the ordinate, and fitted with four parameters (GraphPad Prism9) to calculate the EC50 value. The smaller the EC50 value, the stronger the binding ability of an antibody to human/cynomolgus monkey TNFR2. The binding effect of a humanized antibody was normalized to its corresponding human-murine chimeric antibody WT (see SEQ ID NOs: 38-43 for the sequence). The higher the percentage value, the better the binding effect of the humanized antibody. […]"}, "[3]": {"target": "T2, Human TNFR2-His (Sino 10417-H08H)", "test": "ELISA, plate coated with Human TNFR2-His, detection with anti-human IgG Fc-HRP [panel C]", "experimental": "as §1"}, "[4]": {"target": "T3, human TNFR2 (Novoprotein, Cat #C830) (human, UniProt P20333 23-257, limits assumed)", "T3 construct": "construct not described; also called human TNFR2 protein", "T3 sequence (looked up)": "T2 sequence (looked up)", "test": "competition ELISA: antibody titrated against human TNFα-Biotin on coated human TNFR2 (Novoprotein), detection with Streptavidin-HRP [panel B]", "experimental": "1 μg/ml human TNFR2 (Novoprotein, Cat #C830) was pre-coated with 100 μl/well […] in an ELISA plate. All the test TNFR2 antibodies were subjected to 2.5-fold gradient dilution from the highest concentration of 30 μg/ml; the diluted antibodies were mixed with 15 ng/ml human TNFα-Biotin (Acro Biosystem, Cat #TNA-H82E3) in equal volume, respectively; the resulting mixture was added to the ELISA plate at 100 μl/well, and incubated with shaking at room temperature for 2.0 hours. The plate was washed, and then a Streptavidin-HRP working solution (diluted at 1:10000) was added at 100 μl/well, and the mixture was incubated with shaking at room temperature for 40 minutes. The plate was washed again, and then the substrate TMB of HRP was added to develop colour. A stop solution was added to stop the reaction, and then a microplate reader (MD 13) was used to read the absorbance value. The inhibitory curve of an antibody was drawn with antibody concentration as the abscissa and corresponding OD value as the ordinate, and fitted with four parameters (GraphPad Prism9) to calculate the IC50 value. The smaller the IC50 value, the stronger the ability of an antibody to inhibit the binding of human TNFα to human TNFR2. The blocking effect of a humanized antibody was normalized to its corresponding human-murine chimeric antibody WT. […]"}}}
{"binder": "B1", "values": [{"measurement": "IC50 (read off the curve)", "setting": "[1]", "result": "~0.09", "unit": "µg/mL"}, {"measurement": "EC50 (read off the curve)", "setting": "[2]", "result": "~0.01", "unit": "µg/mL"}]}
{"binder": "B2", "values": [{"measurement": "EC50 (read off the curve)", "setting": "[3]", "result": "~0.01", "unit": "µg/mL"}]}
{"binder": "B3", "values": [{"measurement": "IC50 (read off the curve)", "setting": "[4]", "result": "~0.6", "unit": "µg/mL"}]}
